Measured values reported in patent US20070258954A1.

Target: fluorogenic OmpT peptide substrate (FIG. 10)
Test: cell-based or functional assay

Work on “OmpT protease of E. coli, expressed from multicopy plasmid pML19 in UT5600 cells (from UniProt P09169 21-317) (enzyme)” yielded a mean fluorescence intensity of cells by FACS after 10 min exposure to the substrate of 30 fold.
